Assay results published in paper PMC2807407 (Molecular cell, 2009).

T1: Dsk2-UBL D64K (Saccharomyces cerevisiae, UniProt P48510 1-75, D64K)
T1 sequence: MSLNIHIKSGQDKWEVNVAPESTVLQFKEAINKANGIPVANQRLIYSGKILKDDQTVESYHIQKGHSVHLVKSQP

T2: Dsk2 (full length) (Saccharomyces cerevisiae, UniProt P48510 1-373)
T2 sequence (looked up): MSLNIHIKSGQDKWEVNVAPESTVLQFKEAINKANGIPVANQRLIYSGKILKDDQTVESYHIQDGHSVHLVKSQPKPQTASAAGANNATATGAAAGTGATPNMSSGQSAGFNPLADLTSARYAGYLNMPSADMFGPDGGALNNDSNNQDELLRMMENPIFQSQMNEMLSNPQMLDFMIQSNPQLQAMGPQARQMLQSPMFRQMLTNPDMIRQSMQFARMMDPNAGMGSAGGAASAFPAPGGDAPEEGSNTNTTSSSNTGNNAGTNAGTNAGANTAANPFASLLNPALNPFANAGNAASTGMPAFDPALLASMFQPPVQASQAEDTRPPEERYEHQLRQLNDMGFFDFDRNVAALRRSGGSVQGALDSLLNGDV

B1: Dsk2-UBL (domain or fragment, Saccharomyces cerevisiae)
chain: MSLNIHIKSGQDKWEVNVAPESTVLQFKEAINKANGIPVANQRLIYSGKILKDDQTVESYHIQDGHSVHLVKSQP
B2: Rpn10 C-terminal construct Rpn10_(204-268) (domain or fragment, Saccharomyces cerevisiae, UniProt P38886 204-268, looked up)
chain: GSGGDSDANGTFMDFGVDPSMDPELAMALRLSMEEEQQRQERLRQQQQQQDQPEQSEYPEQHQDK

Tests used:
[1] = biological target: B2; experiment: NMR titration
Dsk2-UBL [2] = biological target: B1; experiment: NMR titration
Dsk2-UBL D64K [3] = biological target: T1, Dsk2-UBL D64K; experiment: NMR titration
Dsk2-UBL [4] = biological target: B1; experiment: SPR
Dsk2 (full length) = biological target: T2, Dsk2 (full length); experiment: SPR
Dsk2-UBL D64K [5] = biological target: T1, Dsk2-UBL D64K; experiment: SPR

Row | stoichiometry N [1] | Kd (Dsk2-UBL [2]) | Kd (Dsk2-UBL D64K [3]) | Kd (Dsk2-UBL [4]) | Kd (Dsk2 (full length)) | Kd (Dsk2-UBL D64K [5]) | Binder
1 | 1 |  |  |  |  |  | B1
2 |  | 3.5 ± 0.7 µM | 39 ± 17 µM | 9 µM | 12.5 µM | 31.8 µM | B2
